In test [1] the target is T1, human IL-23 (human, UniProt Q9NPF7 20-189; P29460 23-328).
T1 construct: Bought recombinant heterodimeric cytokine (eBioscience 34-8239-85 for panning; R&D Systems for the splenocyte assay); also called hIL-23; hIL23
T1 sequence (looked up) 1: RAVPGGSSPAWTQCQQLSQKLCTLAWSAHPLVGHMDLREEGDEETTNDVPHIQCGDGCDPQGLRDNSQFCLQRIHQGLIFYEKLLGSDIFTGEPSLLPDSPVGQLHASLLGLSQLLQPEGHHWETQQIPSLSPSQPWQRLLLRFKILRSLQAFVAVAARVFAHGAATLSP
T1 sequence (looked up) 2: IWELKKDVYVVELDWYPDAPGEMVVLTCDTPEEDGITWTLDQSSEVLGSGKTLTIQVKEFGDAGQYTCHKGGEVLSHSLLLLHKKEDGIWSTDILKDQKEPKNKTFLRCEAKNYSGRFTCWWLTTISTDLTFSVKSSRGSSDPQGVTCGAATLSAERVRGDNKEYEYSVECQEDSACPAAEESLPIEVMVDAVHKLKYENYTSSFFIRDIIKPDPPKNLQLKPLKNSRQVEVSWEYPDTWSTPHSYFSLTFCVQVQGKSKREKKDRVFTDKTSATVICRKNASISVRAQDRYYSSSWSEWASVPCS
The test can be described thus: phage-coated ELISA, clone displayed on phage.

Test [2] concerns the target T1, human IL-23. The test can be described thus: equilibrium ELISA, soluble polypeptide.
The target in test [3] is T1, human IL-23. The experiment in a line: kinetic ELISA, soluble polypeptide. In general terms: ELISA stands for enzyme-linked immunosorbent assay.
The target in test [4] is T1, human IL-23. The experiment in a line: standard equilibrium ELISA.
In test [5] the target is T1, human IL-23. The test can be described thus: cell-based or functional assay.
Test [6] deals with T1, human IL-23. The experiment in a line: standard equilibrium ELISA, soluble polypeptide; MA12.

Consider one molecule from US20150266925A1 (COMPLIX, published 2015).

B1: MA12 (designed binder)
chain: MSIQEIQKEIAQIQAVIAGIQKYIYTMTGGSGGSGGGGSGGSGGMSIEEIQKQIAAIQCQIAAIQKQIYAMTGSGGGGSGGSGGGGSGMSIEEIQKQIAAIQEQILAIYKQIMAMVT
notes: also called MAl2
In general, Kd refers to the free concentration of one partner at which half of the binding sites on the other are occupied at equilibrium, for simple one-to-one binding. The low end stands for higher affinity, the high end for lower affinity. The koff is a measure of how fast the partners let go of each other. Higher therefore signals a short-lived complex. As a reminder, the kon is the second-order rate constant of association. Molecule B1 displayed a Kd with human IL-23 [1] of 0.08 nM. The affinity with human IL-23 [2], expressed as Kd, was 0.11 nM. Also, in the test with human IL-23 [3], the Kd worked out at 0.26 nM, the koff was determined as 0.00021 s⁻¹ and the kon was 810000 M⁻¹ s⁻¹. The “factor better than the non-matured variant C159” value with human IL-23 [4] amounted to 38 fold. Moreover, in the test with human IL-23 [5], the “functional KD (DB fKD), DB cell assay: Stat3 phosphorylation induced by human IL-23; n data = 2” value worked out at 0.35 nM and the “functional KD (Spleno fKD), mouse splenocyte assay: IL-17 production induced by human IL-23; n data = 5” value is 0.13 nM. The same molecule yielded a Kd in the test with human IL-23 [6] of 0.1 nM.
